Experiment: yeast display, Sf9 membrane polyspecificity reagent, FACS + sequencing; frameworks hold sequencing errors
In short: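 Genes from sorted yeast were amplified by colony PCR, read by MiSeq 2 × 250 sequencing and filtered on CDR length. These cells carried a synthetic nanobody library in Saccharomyces cerevisiae BJ5465 and were sorted by FACS into low and high (top ~1%) gates on anti-HA and streptavidin fluorescence. Polyreactivity is labelled according to the gate of origin.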
In the case of “QVQLVESGGGLVQAGGSLRLSCAASGSIFDDYAMGWYRQAPGKERELVAAIDYTGGSTYYADSVKGRFTISRDNAKNTVYLQMNSLIPEDTAVYYCAAEVRVYYYLGGGYSWGQGTQVTVSS”, the “polyreactivity (PSR sort gate)” value is reported as “low polyreactivity”.
With “QVQLVESGGGLVQAGGSLRLSCAASGRILASYAMGWYRQAPGKECELVAAIRYRGSTSYADSVKGRFTISRDNAKNTVYLQMNSLKPEDTAVYYCAAKWHVRGRGARYRYDYDYWGQGTQVTVSS” the “polyreactivity (PSR sort gate)” value was “low polyreactivity”.
For “QVQLVDSGGGLVQAGGSLRLSCAASGRTFSANAMGWYRQAPGKERELVAGITSRGGGTYYADSVKGRFTISRDNAKNTVYLQMNSLKTEDTAVYYGAKASRYWSLYYWGQGTQVTVSS”, the “polyreactivity (PSR sort gate)” value was “high polyreactivity”.
With “QVQLVESGGGLVQAGGSLRLSCAASGRTFSKYAMGWYRQAPGKERELVASITRSGGSTNYADSVKGRFTISRDNAKNTVYLQINSLKPEDTAVYYCRRKLGRTHASGFDYWGQGTQVTVSS” the “polyreactivity (PSR sort gate)” value was “low polyreactivity”.
With “QVQLVESGGGLVQAGGSRRVSCAASGITFPNYAMGWYRQAPGKERELVAAITGSGGSTYYADSVKGRFTISRDNAKNTVYVQMNSLKPEDTAVYYCNAVYYRYIRGFYYWGPGTQVTVSS” the “polyreactivity (PSR sort gate)” value was “high polyreactivity”.
In the case of “QVQLVESGGGLVQAGGSLRLSCAASGRIFDFNAMGWYRQAPGKEREFVAAIRTSGGDSTYYADSVKGRFTISRDNEKNTVYLQMNSLKPEDTAVYYCAKTVWWYYRYPFDYWGQGTQVTVSS”, the “polyreactivity (PSR sort gate)” value is reported as “low polyreactivity”.
In the case of “QVQLVESGGGLVQAGGSLRLSCAASGFIFRVYAMGWYRQAPGKERELVAAITRAGNTYYADSVKGRFTISRDNAKNTVYLQMNSLKPEDTAVYYCNNYHYWASPMNYWGQGTQVTVSS”, the “polyreactivity (PSR sort gate)” value is reported as “high polyreactivity”.
For “QVQLVDSGGGLVQAGGSLRLTFAASGRTFRWNVMGWYRQAPGKERELVATISRRSGSTNYADSVKGRFTISRDNAKITVYLQMNSLKPEDTAVYYCAVVIVRALVYAGDYWGQGTQVTVSS”, the “polyreactivity (PSR sort gate)” value was “low polyreactivity”.
With “QVQLVESGGGLVQAGGSLRLSCAASGRTYGYAMGSYRPAPGKERELVARITWRGGSTSYADSVKGRFTISRDNAKNTVYLQMNILKPEDTAVYYCAAGFYFPVYTYVRIRYYYWGQGTQVTVSS” the “polyreactivity (PSR sort gate)” value was “high polyreactivity”.
In the case of “QVQLVESGGGLVQAGGSLRLSCAASGIIFRYYAMGWYRQAPGKERELVAAISRSGARTYYADTVKGRFTISRDNAKNTVFLQRNSLKPEDTAVYYCATDPTSGRFYYWGQGTQVTVSS”, the “polyreactivity (PSR sort gate)” value is reported as “high polyreactivity”.
For “QVQLVESGGGLVQAGGSLRLSCAASGLIIWLYTMGWYRQAPGKERELVAAIDWSGGSTYYADSVKGRFTISRDNAKNTVYLQMNSLKPEDTAVYYCAADPEPSYRFDYWGQGTQVTVSS”, the “polyreactivity (PSR sort gate)” value was “low polyreactivity”.
With “QVQLVESGGGVVQAGGSLRLSCAASGLIFYLYAMGWYRQAPGKERELVAGITSGGGSTYYADSVKGRFTISRDNAQNTVYLQMNSLKPEDTAVDDCAARLVLYITVVYEDDYWGQGTQGTVSS” the “polyreactivity (PSR sort gate)” value was “low polyreactivity”.
With “QVQLVESGGGFVQAGGSLRLSCAASVSILWWYAMGWSRKATVKERELVAAITWSGTSTYYADSVKGRFTISRVNGKNTLYLQMISLKPEETAVYYCAVRSYVNGGWYDYWGQGTQGTVSS” the “polyreactivity (PSR sort gate)” value was “high polyreactivity”.
In the case of “QVQLVESGGGLVQAGGRLRLSCAASGSTLYAYGMGWYRQAPGKERELVAAIRTGGSTYYADSVKGRFTISRDNAKITVYLQMNSLKPEDTAVYYCAADHGYQYGYWGQGTQVTVSS”, the “polyreactivity (PSR sort gate)” value is reported as “low polyreactivity”.
With “QVQLVESGGGLVQAGGSLRLSCAASGSIFGYNAMGWYRQAPGKERELVAAISGGGGTYYADSVKGRFTISRDNAKNTVYLQMNSLKPEDTAVYYCATDRGHKWLFYGTYYRYEYWGQGTQVTVSS” the “polyreactivity (PSR sort gate)” value was “low polyreactivity”.
For “QVQLVESGGGLVQAGGSLRLSCAASGRTFSGNALGWSTHAPGKERELVAAITSSGGSTYYADSVKGRFTISRENAKNTVYLQMNSLKPEDTAVYYCNTDPQGRTVVYGGDDYWGQGTQVTVSS”, the “polyreactivity (PSR sort gate)” value was “low polyreactivity”.
With “QVQLVESWGVLVQAGGSLRLSCAASGSIIVNYDMGWYRQARGKERELVAAITWGGGRTYYADSVKRRFTISRDNAKNSVYLQMNSLKPEDTAVYYCAADFSWVINPYEYCGQGTQVTVSS” the “polyreactivity (PSR sort gate)” value was “low polyreactivity”.
With “QVQLEESGGGLLKEGGSLRLSCAASGFTFDGYAMGWYRQAPGKERELVAVITSGGSTKYADSVKGRFTISRDNAKNTVYLQMNSLKPEVTAVYNCNVVGGRYLYSAYDYWGHGTQVTVSS” the “polyreactivity (PSR sort gate)” value was “low polyreactivity”.
With “QVQLVESGGGLVQAGGSLRLSCAASGSIFFGYAMGWYRQAPGKEREFVAAITASGVRTYYADSVKGRFTISRDNAKNTVYLQMNSLKPEDTAVYYCAARIGTGVLPARGAKSHMDYWGQGTQVPVSS” the “polyreactivity (PSR sort gate)” value was “low polyreactivity”.
For “QVQLVESGGGLVQAGGSLRLSCAASGITFRWYAMGWYRQAPGKERELVAAISTSGTRTYYADSVKGRFTISRDNAKNTVYLLMNSLKPEDTAVYYCAADYGRQLGRYGFGYWGQGTQVSVSS”, the “polyreactivity (PSR sort gate)” value was “high polyreactivity”.
For “QVQLVESGGGLVQAGGSLRLSCAASGFTFFLYAMGWYRQAPGKERELVARISSGRDTYYADSVKGRFTISRDNAKKTVYLQMNSLKPEDTAVYYCAVAFWFGYRYYYWGQGTQVTVSS”, the “polyreactivity (PSR sort gate)” value was “high polyreactivity”.
In the case of “QVQLVESGGGLVQAGGSLRLSCAASGRTFYRYVMGWYRQAPGKERELVAAISKSDGSTYYADSVKGRFTISRDNAKNSVYLQMNSLKPEDTAVYYCNARLSWSAFGYWGQGTQVTVSS”, the “polyreactivity (PSR sort gate)” value is reported as “high polyreactivity”.
With “QVQIVESGGGLVQAGGSLRLSCAASGSTFTRYAMGWYRQAPGKERELVAAISRTGGSRTYYADSVNGRFTISRDNAKNTVYLQMNCLKPEDTAVYYCAKGYWRYLGFLYFFPARDYWGQGTQVTVSS” the “polyreactivity (PSR sort gate)” value was “high polyreactivity”.
In the case of “QVQLVESGGGLVQAGGSLSLSCAASGSTFSRNTMGRYRQAPRKERELVAGISSSGGSTYYADSVKGRFTISRDNAKNTVYLQMNSLKQEDTAVYYCSARFYVSFVGYNYWGQGTQVTVSS”, the “polyreactivity (PSR sort gate)” value is reported as “high polyreactivity”.
With “QVQLVESGGGLVQAGGSLRLSCAASGIIFPRYMGWYRQEPGKERELVAAIRWSSDDTNYADSVKGRFTISRDNAKNTVYLQMNSLKPEDSAVYYCAKDSLYGVPFDVDYWGQGTQVTVSS” the “polyreactivity (PSR sort gate)” value was “low polyreactivity”.
In the case of “QVQLVESGGGLVQAGGSLRLSCAASGRTFYKYGMVLYRKAPGKERELVAAIRWSGGSTYYADSVKGRFTISRDNAKYTVYFQMNSLKPEDTAVYYCATRSGFGYGYWGQGTQVNVSS”, the “polyreactivity (PSR sort gate)” value is reported as “high polyreactivity”.
For “QVQLVESGGGLVQAGGSLRLSCAASGSTFRRYAMGWYRQAPGKERELVAAITTADITNYADSVKGRFTISRDNAKNTVYLQMNSLKPEDTAVYYCAAPVAYRGSRNFIYRYNYWGQGTQVTVSS”, the “polyreactivity (PSR sort gate)” value was “high polyreactivity”.
With “QVQLVESGGGLVQAGGSLRLSCAASGITFFDYAMGWYIQAPGKERELVAAIDLSDGRTYYADSVKGRFTISRDNAKNTVYLQMNSLKPEDTAVYYCARQHEDYVYYWYYWYDYDYWGQGTQVTVSS” the “polyreactivity (PSR sort gate)” value was “low polyreactivity”.
For “QVQIVESGGGLVQAGGSIRLSCAASGTTFNLYAMGWYRQAPGKERQLVAVISWSGGSTYYADSVKGRFTISRDNAKNTVYLQMNSLKPEDTAVYYCAAEYYQWLYPYNEYDYWGQGTQVTVSS”, the “polyreactivity (PSR sort gate)” value was “high polyreactivity”.
For “QVQLVESGGGLVQAGGSLRLSCAASGITFFTYGMGWYRQAPGKERELVASINWSGGTYYADSVKGRFTISRDNAKNTVYLQMNSLKPEDTAVYYCAAETSNSTQEMGYWGQGTQVTVSS”, the “polyreactivity (PSR sort gate)” value was “low polyreactivity”.
With “QVQLVESGGGLVQAGGSLRLSCAASGSTFYLNAMGWYRQAPGKERELVAAINSGDSTNYADSVKGRFTISRDNAKNSVYLQMNSLKPEDNAVYYCARDRYPSEGDYWGQGTQVTVSS” the “polyreactivity (PSR sort gate)” value was “low polyreactivity”.
In the case of “QVQLVESGGGLVQAGGSLRLSCAASGRTFRYYAKGWYRPAPGTERELVADISSTGRTYYADSVKGRFTISRDNAKNTVYLQMNSLKPEDTAVYYCNADYFFEFDYWGQGTQVTVSS”, the “polyreactivity (PSR sort gate)” value is reported as “low polyreactivity”.
In the case of “QVQLVESGGGLVQAGGSLRLSCAASGSIFRWNAMGWYRQAPGKERELVAAITWRSSSTYYADSVKGRFTISRDNAKNTVYLQMNSLKPEDTAVYYCNAKRGVQTYANFYGSKYDYWGQGTQVTVSS”, the “polyreactivity (PSR sort gate)” value is reported as “high polyreactivity”.
In the case of “QVQIVDSCGGLVQSGGSLRLSCDASGSTFLTNSMGWYRQAPGKERELVAAITLRGGRTYYADSVKGRFTISRDNALNTVYLQMNSLKPEDSAVYYCNARNYYYPSDRDYWGQGTQVTVSS”, the “polyreactivity (PSR sort gate)” value is reported as “low polyreactivity”.
For “QVQLVESGGGLVQAGGSLRLSCAPSGLIFAHYDMGWYRHAPGKERELVAGITSGGSTNYADSVKGRFTISRDNAKITVYLQMNSQKPEYTAVYYCNADRAGFLGFYLYDYWGQGTQVTVSS”, the “polyreactivity (PSR sort gate)” value was “low polyreactivity”.
With “QVQLVESGGGLVQAGGSLRISCAASGSTFYLYDMGWYRQAPGKERELVANITSGTSTTYADSVKVRFTISRDNAKNTVYLQMNSLKPEDTAVYYCNATYTSPEYDYWGQGTQVTVSS” the “polyreactivity (PSR sort gate)” value was “low polyreactivity”.
In the case of “QVQLVESGGGLDQAGGSLRLSCAASGITFYGYTMGLYRQAPGKERELVATITRGGSTYYADSVKGRFTISRDNAKNTVYLQMNSLKPEDTAVYYCAAESQYDYGVEYDYWVQGTQVTVSS”, the “polyreactivity (PSR sort gate)” value is reported as “low polyreactivity”.
For “QVHLVESGVGLVQAGGSLRLRCAASGRTLYYYAMGWYRQAPGKQSELVAAINSGGSTKYADSVKGRFTISRDNAKNTVYLQMHSLKPEDTAVYFCAARGYIRGGYYWGQGTQVTVSS”, the “polyreactivity (PSR sort gate)” value was “high polyreactivity”.
In the case of “QVQLVESGGGLVQAGGSLRLSCAASGYIFGWYTMGWYRQAPGKERELVAAISGGGRTYYADSVKGRFTISRDNAKNTVYLQMNSLKPEDTAVYYCNDYSSYIKYDYWGQGTQVTVSS”, the “polyreactivity (PSR sort gate)” value is reported as “high polyreactivity”.
With “QVQLVESGGGLVQAGGSLRLSCAASGRIIYNYAMGWYRQAPGKERELVAAISRGGSTNYADSVKGRFTISRDNAKNTVYLQMNSLKPEDTAVYYCAAWTYVWTRGGSPVTVQRYNYWGQGTQVTVSS” the “polyreactivity (PSR sort gate)” value was “high polyreactivity”.
With “QVQLVDSGGGLVQAGGSLRLSSAASGSTFRYYAMGWYRQAPGKERELVAAISRSGGRTYYADSVKWRFTISRDKAKNTVYLQINSLKPEDNAVYYCNKDSRASPYGYWGQGTQVTVSS” the “polyreactivity (PSR sort gate)” value was “high polyreactivity”.
With “QVQLVESGGGLVQAGGSLRLSCAASGRTFRLYAMGWYRQAPGKERELVAAITFRGGRTYYADSVKGRFTISRDNAKNTVYLQMNSLKPEYTAVYYCNAVTYSSPYRFDYWGQGTQVTVSS” the “polyreactivity (PSR sort gate)” value was “low polyreactivity”.
With “QVQLVESGGGLVQAGGSLRLSCAASGRTFRYNAMGWYRQAPGKERELVATISSSGGSTSYADSVKGRFTISRDNAKNTVYLQMNSLKREDTAVYYCNKRRLVAPGNGMDSWGQGTQVTVSS” the “polyreactivity (PSR sort gate)” value was “low polyreactivity”.

Reference: the nanobody polyreactivity screen of Harvey et al. (2022)
